Reference: patent US9505841B2, “Use of an anti-Ang2 antibody” (Samsung Electronics Co., Ltd., priority 2013, dated 2016)

Tests used:
[1] = tested on: metastasis of lung cancer cells to near lymph nodes; assay: LLC tumor metastasis to inguinal lymph nodes; format: in vivo, mouse; conditions: 10 mg/kg i.p., five administrations, compared to Fc- or 4H10-treated group
Procedure: To see the degree of tumor metastasis to near lymph nodes when treated with antibody 10D6, referring to the method of Example 14, LLC tumor cells were subcutaneously injected into mice. When the size of tumors reached 50˜100 mm^3, anti-Ang2 antibody 10D6 was injected at the concentration of 10 mg/kg via an intraperitoneal injection three times a week and the size of the tumors was measured. After administering the antibody five-times, inguinal lymph nodes were separated, and the obtained tissue sections were immunostained using rabbit anti-LYVE-1 antibody (1:200, Millipore) and mouse pan-Cytokeratin antibody (1;200, Abcam).
For comparison, the same experiment was performed to a control group treated with Fc of IgG1 and a comparative group treated with antibody 4H10 (refer to Example 3).

[2] = tested on: lymphatic endothelial cells; assay: BrdU proliferation assay, lymphatic endothelial cells; format: cell-based; conditions: 2 ug/ml Ang2 with 10 ug/ml antibody; 3 days
Procedure: The measurement assay of the proliferation of vascular and lymphatic endothelial cells was conducted using a BrdU assay kit (Roche) Cell. Vascular endothelial cells of P3˜P8 (HUVEC, ATCC) or lymphatic endothelial cells (Lonza) were placed in a collagen-coated 96-well plate (BD Bioscience) at 3000˜5000 cells/well and cultured in EGM-2 media (Lonza) for 16˜24 hours. A mixture of 2 ug/ml of Ang2 (R&D systems) and 10 ug/ml of antibody 10D6 in 2% EBM media was added to the 96-well plate washed with PBS, which was then cultured for 3 days.
For efficiency comparison, an anti-Ang2 antibody (MEDI: Medlmmune Co.) was used. For a BrdU assay, 10 ul of BrdU solution diluted at 1:1,000 was added to each well of the plate to label the cells. The cells were cultured for 1 hour and after the removal of the culture solution, 100 ul of Fixation/Denaturation solution (Roche) was added to each well and then, removed after 30-min wait. An anti-BrdU antibody (Roche) conjugated with peroxidase was diluted in a dilution buffer (Roche) at 1:100, added to each well to react for 1 hour and then, washed four times using a washing buffer (Roche). 100 ul of a TMB substrate was added thereto to react and then, absorption was measured at 450 nm using a Microplate reader (Perkin Elmer).

Akt, eNOS and 42/44 = assay: Phosphorylation of Tie2 downstream signaling proteins in HUVEC (immunoblot); format: cell-based, human
Procedure: To see whether antibody 10D6 induces the activation of the downstream signaling of a Tie2 receptor as well as the activation of the Tie2 receptor itself, the phosphorylation degrees of proteins participating in the downstream signaling when Ang2 alone or Ang2 and antibody 10D6 was treated were tested using immune blotting.
Specifically, HUVEC (ATCC) cells (1×10^6) were cultured in a 6-well culture dish using EGM-2 (Lonza) media at 37° C. and when they reached 80˜90% confluency, the media were replaced with serum-free media (Lonza) and cultured at 37° C. for 6 to 16 hours. The dish was washed once with PBS, and the cultured cells were treated with a mixture prepared by mixing 60 nM of the Ang2 antibody (10D6) with 40 nM of Ang2 protein (R&D systems) and letting them stand for 20 min. and further cultured for 30 min. For comparison, groups in which Ang1 (R&D systems) 4 nM, Ang2 (R&D systems) 40 nM, and Ang2 (R&D systems) 40 nM+anti-Ang2 antibody (Regeneron) 60 nM were treated respectively were prepared.
The cells were washed using PBS, treated with a lysis buffer (Roche), collected to a tube to be dissolved at 4° C. for 30 min. and then, centrifuged at 13,000 rpm for 15 min. to measure a supernatant. A sample buffer (Invitrogen) mixed with a reducing agent was added to 25 ug of a cell lysate, which was boiled at 95° C. for 5 min., and then, applied to NuPAGE Novex 4-12% Bis-Tris gel (Invitrogen) and transferred onto Nitrocellulose membrane (Invitrogen).
To see the presence of the phosphorylation of Akt, eNOS and 42/44 involved in the downstream signaling, the blots were blocked with PBST mixed with 3% (v/v) skim milk (Sigma) for 30 min. and then treated with an anti pAkt antibody, anti p-eNOS antibody, and anti p-42/44 antibody (all of them; cell signaling). The blots were reacted in a stripping buffer (Thermo) for 15 min. and then blocked again to identify Akt, eNOS, and 42/44 using an anti Akt antibody, anti eNOS antibody, and anti 42/44 antibody (all of them; cell signaling).

B1: 10D6: mouse anti-Ang2 monoclonal antibody from hybridoma KCLRF-BP-00295; heavy chain variable region SEQ ID NO: 7, light chain variable region SEQ ID NO: 9 (antibody, V domains shown)
VH: DVQLQESGPGLVKPSQSLSLTCTVTGYSITSDYAWNWIRQFPGNKLEWMGYINYSGNTDYNPSLKSRSSITRDTSKNQFFLQLNSVTTGDTATYYCARGNFEGAMDYWGQGTSVTVSS
VL: SIVMTQTPKFLLVSAGDRVTITCKASQSVSNDVAWYQQKPGQSPKLLIYYASNRYPGVPDRFTGSGYGTDFTFTISTVQAEDLAVYFCQQDYSSPWTFGGGTKLEIK
modifications: Synthetic (Heavy chain variable region of an anti-Ang2 antibody); Synthetic (Light chain variable region of anti-Ang2 antibody)
number of metastatic lung cancer in lymph nodes [1]: decreased
size of lymph nodes [1]: decreased
growth of lymphatic endothelial cells (BrdU) [2]: increased
downstream signaling (phosphorylation of Akt, eNOS, 42/44) compared to Ang2 sole-treatment and Ang2 + RG antibody (Akt, eNOS and 42/44; 60 nM 10D6 + 40 nM Ang2, or Ang1 4 nM alone, 30 min): strongly induced
downstream signaling effects relative to Ang1 sole-treatment group (Akt, eNOS and 42/44; 60 nM 10D6 + 40 nM Ang2 vs Ang1 4 nM): at least equal to those in the Ang1 sole-treatment group
